From patent US20100136018A1 (Ablynx, published 2010)

Experiments:
[1] = molecular target: T1, ectodomain of human pIgR (R&D Systems Cat #2717-PG) (human, UniProt P01833 19-638); assay: designation in the sequence table; clones from phage selection and ELISA screening on pIgR ectodomain
T1 construct: extracellular domain; Bought protein, immobilised on Maxisorp plates; also called pIgR ectodomain

[2] = molecular target: T2, ectodomain of human FcgR1 (R&D Systems Cat #1257-FC) (human, UniProt P12314 16-292); assay: designation in the sequence table; clones from phage selection and ELISA screening on FcgR1 ectodomain
T2 construct: extracellular domain; Bought protein, immobilised on Maxisorp plates; also called FcgR1 ectodomain; Fc gamma R1

[3] = molecular target: T2, ectodomain of human FcgR1 (R&D Systems …); assay: ELISA, FcgR1 ectodomain coated at 3 ug/ml, 10 ul periplasmic extract in 100 ul, anti-myc detection
Method: (§1) In short, 3 ug/ml FcgR1 ectodomain was immobilized on Maxisorp microtiter plates (Nunc) and free binding sites were blocked using 4% Marvel in PBS. Next, 10 ul of periplasmic extract containing Nanobody of the different clones in 100 ul 2% Marvel PBST were allowed to bind to the immobilized antigen. […] Binding specificity was determined based on OD values compared to controls having received no Nanobody (low control).

[4] = molecular target: T1, ectodomain of human pIgR (R&D Systems …); assay: ELISA, pIgR ectodomain coated at 5 ug/ml, 10 ul periplasmic extract in 100 ul, anti-myc detection
Method: as §1, with “5” for “3”, “pIgR” for “FcgR1”

[5] = molecular target: T1, ectodomain of human pIgR (R&D Systems …); assay: competition ELISA, pIgR ectodomain coated at 5 ug/ml, 1 ug/ml IgA preincubated with purified Nanobody at 1600, 200, 25 and 3.3 nM, bound IgA detected with anti-IgA; blocked ligand IgA

T2 sequence (P12314 16-292): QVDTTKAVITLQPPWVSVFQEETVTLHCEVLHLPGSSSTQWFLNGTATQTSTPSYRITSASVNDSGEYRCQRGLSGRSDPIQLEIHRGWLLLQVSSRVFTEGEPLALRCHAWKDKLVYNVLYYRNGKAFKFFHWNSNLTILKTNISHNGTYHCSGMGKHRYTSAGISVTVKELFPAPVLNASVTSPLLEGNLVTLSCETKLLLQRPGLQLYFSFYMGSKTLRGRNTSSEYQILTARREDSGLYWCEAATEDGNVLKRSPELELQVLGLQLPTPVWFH
T1 sequence (P01833 19-638): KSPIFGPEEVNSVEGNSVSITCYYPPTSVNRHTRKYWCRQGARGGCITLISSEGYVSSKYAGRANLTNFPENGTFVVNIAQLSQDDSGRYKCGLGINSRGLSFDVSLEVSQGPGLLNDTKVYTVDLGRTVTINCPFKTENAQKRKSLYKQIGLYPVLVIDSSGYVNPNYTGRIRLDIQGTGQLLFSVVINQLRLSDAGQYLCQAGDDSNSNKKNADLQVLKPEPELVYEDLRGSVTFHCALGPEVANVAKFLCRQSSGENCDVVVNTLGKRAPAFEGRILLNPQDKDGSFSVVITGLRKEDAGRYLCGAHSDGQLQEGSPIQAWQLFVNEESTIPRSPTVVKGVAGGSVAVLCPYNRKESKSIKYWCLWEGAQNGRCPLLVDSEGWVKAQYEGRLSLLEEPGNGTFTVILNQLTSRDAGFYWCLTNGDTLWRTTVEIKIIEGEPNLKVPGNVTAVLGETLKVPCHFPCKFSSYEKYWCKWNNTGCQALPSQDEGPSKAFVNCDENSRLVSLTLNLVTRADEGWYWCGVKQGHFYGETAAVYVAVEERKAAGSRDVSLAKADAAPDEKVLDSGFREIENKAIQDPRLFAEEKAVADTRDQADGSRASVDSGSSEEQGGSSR

B1: 2_f3 (VHH)
VHH: EVQLVESGGGLVQAGGSLRLSCAASGRTFTIYTMGWFRQAPGKAREFISALRWSGGSTYTFYADSVKGRFTISRDNAKNTLYLQMNSLKSEDTAIYYCGMVDPRAPYMRPDSTDSYAYWGQGTQVTVSS
notes: Nanobody against pIgR
binding result [1]: binds

B2: 1 E2 (VHH)
VHH: EVQLVESGGGLVQAGGSLRLSCVASGFILREYNMGWFRQAPGKEREIVAAIAWTGTNSYYVDSVKGRFTISRDDTKNTVYLQMNSLNPEDTGVYHCAAEGYVSNFPRSSADEYDYWGQGTQVTVSS
notes: Nanobody against pIgR
binding result [1]: binds

B3: 48D11 (VHH)
VHH: EVQLVESGGGLVQAGDSLTLSCVASGRTFSNYGMGWFRQAPGKEREFVASINWGDGNTYYANSVKDRFAISKDHAKNTVYLQMNSLKPEDTALYYCAAVSSNTEIFDTWGQGIQVTVSS
notes: Nanobody against FcgR1
binding result [2]: binds

B4: 49F9 (VHH)
VHH: EVQLVESGGGLVQAGDSLTLSCVASGRTFNNYGMGWFRQAPGKEREFVASINWGNGKTYYANPVKDRFAISKDHAKNTVYLQMNSLKPEDTALYYCAAVSSNTETFDTWGQGIQVTVSS
notes: Nanobody against FcgR1
binding result [3]: binds

B5: 49 E4 (VHH)
VHH: EVQLVESGGGLVQAGDSLTLSCVASGRTFNNYGMGWFRQAPGKEREFVASINWGNGKTYYANSVKDRFAISKDHAKNTVYLQMNSLKPEDTALYYCAAVSSNTETFDTWGQGIQVTVSS
notes: Nanobody against FcgR1
binding result [3]: binds

B6: 49D4 (VHH)
VHH: EVQLVESGGGLVQAGDSLTLSCVASGRRFSAYGMGWFRQAPGKEREFVASINWGDGNTYYANSVKDRFAISKDHAKNTVYLQMNSLKPEDTALYYCAAVSSNTEIFDTWGQGIQVTVSS
notes: Nanobody against FcgR1
binding result [3]: binds

B7: 48D6 (VHH)
VHH: EVQLVESGGGLVQAGDSLTLSCVASGRTFSAYGMGWFRQAPGKEREFVASINWGGGNTYYANSVKDRFAISKDHAKNTVYLQMNSLKPEDTALYYCAAVSSNTEIFDTWGQGIQVTVSS
notes: Nanobody against FcgR1
binding result [3]: binds

B8: 49F4 (VHH)
VHH: EVQLVESGGGLVQAGDSLTLSCVASGRTFSANGMGWFRQAPGKEREFVASIAWGDGNTYYANSVKDRFAISKDHAKNTVYLQMNSLKPEDTALYYCAAVSSNSETFDTWGQGIQVTVSS
notes: Nanobody against FcgR1
binding result [2]: binds

B9: 1C7 (VHH)
VHH: EVQLVESGGGLVQPGGSLRLSCAASGFAFSRYGMYWVRQAPGKGLEWVSTINSGGDYIIYADSVKGRFTISRDNAKNTLYLQMNSLKPEDTAVYYCAEGYRGSEWPPPAFTLQRADFASWGQGTQVTVSS
notes: Nanobody against pIgR
binding result [1]: binds

B10: 4C11 (VHH)
VHH: EVQLVESGGGLVQPGGSLRLSCAASGFTFSSYAMTWVRQGLGKGLEWVSIISGNGGSTSYADSVKGRFTISRDNAKNTLYLQMNSLKPEDTAVYYCAKWDGLGTLPGSQGTQVTVSS
notes: Nanobody against pIgR
binding result [1]: binds

B11: 4 E9 (VHH)
VHH: EVQLVESGGGLVQAGGSLRLSCAASGSILSTNDMGWYRQAPGNQRELVARISRGSSTIYTESVKGRFTISRDNAKNTVYLQMNSLKPEDTAVYYCNADMLPSDLSHGYYYRDYWGQGTQVTVSS
notes: Nanobody against pIgR
binding result [1]: binds

B12: 1B7 (VHH)
VHH: EVQLVESGGGLVQAGGSLRLSCAASGFTFDDYAIGWFRQAPGKEREWVSCISRSDGSTYYADSVKGRFTISSDNAKNTVYLQMNSLKPEDTAVYHCAADAIGSFPCPAGVYDYWGQGTQVTVSS
notes: Nanobody against pIgR
binding result [1]: binds

B13: 4G11 (VHH)
VHH: EVQLVESGGGLVQAGGSLRLSCAASGFTFDDYAIGWFRQAPGKEREGVSCISSRDGMTYYADSVKGRFTISSDNARNTVYLQMNSLKPEDTAVYYCAADLVGSFPCPVAAYDYWGQGTQVTVSS
notes: Nanobody against pIgR
binding result [1]: binds

B14: 4_g6 (VHH)
VHH: EVQLVESGGGLVQAGGSLRLSCAASGFTFDDYAIGWFRQAPGKEREGVSCISSRDGTTYYADSVKGRFTISSDNAKNTVYLQMNSLKPEDTAVYYCAADLVGSFPCPVAAYDYWGQGTQVTVSS
notes: Nanobody against pIgR
binding result [4]: binds

B15: 1C2 (VHH)
VHH: EVQLVESGGGLAQPGGSLRLSCAASGFAFSSYWMYWVRQAPGKGLEWVSAISTGGGGTYYADSVKGRFTISRDNAKNTLYLQMNSLKPEDTARYYCARDEAPTFDYSGNYAYTGSDPNDYWGQGTQVTVSS
notes: Nanobody against pIgR
binding result [1]: binds

B16: 1_g10 (VHH)
VHH: EVQLVESGGGLVQAGDSLRLSCAASGRTFSTYAMAWFRQAPGKDREFVAAISWSSDMTYYLDSVKGRFTISRDNAKNTVFLQMNSLKPEDTAVYYCASGAYYAGSSTSPYNYWGQGTQVTVSS
notes: Nanobody against pIgR
binding result [4]: binds

B17: 49C5 (VHH)
VHH: EVQLVESGGGLVQAGGSLGLSCVASGRTFVSGGMGWFRQAPGKEREFVASIVWIGGRTYYADSVKGRFTISGDNAKSTVTLQMNSLKPEDTATYYCADGDLATGTYDYWGQGTQVTVSS
notes: Nanobody against FcgR1
binding result [3]: binds

B18: 49 E10 (VHH)
VHH: EVQLVESVGGLVQTGGSLRLSCVASGRTFVSGGMGWFRQAPGKEREFVAAIVWIGGRTYYADSVKGRFTISGDNAKSTVTLQMNSLKPEDTALYYCADGDLATGTYDYWGQGTQVTVSS
notes: Nanobody against FcgR1
binding result [2]: binds

B19: 4_e11 (VHH)
VHH: EVQLVESGGGLVQAGGSLRLSCAASGFTFDDYAIGWFRQAPGKEREGVSCINNSDGSTYYADSVKGRFTISSDNAKNTVYLQMNSLKPEDTAVYYCAADFVGGSYCLFPTYNYWGQGTQVTVSS
notes: Nanobody against pIgR
binding result [1]: binds

B20: 4_a7 (VHH)
VHH: EVQLVESGGGLVQAGGSLRLSCEDSGRTFGDYIMGWFRQAPGKERDFVAAISWTGDSTYYKYYSDSAKGRFTASRDNAKNTAYLQMNGLKPEDTAVYYCAARTFRIDYDPRTASTYNYWGQGIQVTVSS
notes: Nanobody against pIgR
binding result [4]: binds

B21: 2_d2 (VHH)
VHH: EVQLVESGGGQVQAGGSLRLSCVASERTFSYYDLAARAWFRQAPGKERELVSASTWNGGYTYYVDSVKGRFTVSTDDAGDTMYLQMNSLEPEDTAVYYCAARRAYSSDLHDYRTFDYWGQGTQVTVSS
notes: Nanobody against pIgR
binding result [1]: binds

B22: 1D7 (VHH)
VHH: EVQLVESGGGLVQSGGSLRLSCAASGRAFNYYAMGWFRQAPGKERELVAVINWSGGTTSYADSVKGRFTISRSNAKNTVYLQMSSLKPEDTAVYYCAADSIYRTSKDYNYWGQGTQVTVSS
notes: Nanobody against pIgR
IC50 (read off the curve) [5]: ~0.08 µM

B23: 4_h1 (VHH)
VHH: EVQLVKSGGGLVQAGDSLRLSCAASGRTSSSVTMGWFRQAPGKERDFVAAISWSGGSTYYADSVKGRFTISRDNAKNTVYLQMNSLKPEDTAVYYCAAVVPSDPIIYYTDYVDYDYWGQGTQVTVSS
notes: Nanobody against pIgR
binding result [4]: binds
